How the values were obtained:
[1] = molecular target: T1, complement factor H, native glycosylated, full-length, purified from human plasma (human), P08603; assay: SPR; Biacore X100, biotinylated glycosylated CFH on a streptavidin chip (781 RU), CFH preparations flowed at 0.01 to 1.8 μM, Hepes buffer, single-cycle, 1:1 steady-state affinity fit; details: remark: other sources report otherwise
T1 chain: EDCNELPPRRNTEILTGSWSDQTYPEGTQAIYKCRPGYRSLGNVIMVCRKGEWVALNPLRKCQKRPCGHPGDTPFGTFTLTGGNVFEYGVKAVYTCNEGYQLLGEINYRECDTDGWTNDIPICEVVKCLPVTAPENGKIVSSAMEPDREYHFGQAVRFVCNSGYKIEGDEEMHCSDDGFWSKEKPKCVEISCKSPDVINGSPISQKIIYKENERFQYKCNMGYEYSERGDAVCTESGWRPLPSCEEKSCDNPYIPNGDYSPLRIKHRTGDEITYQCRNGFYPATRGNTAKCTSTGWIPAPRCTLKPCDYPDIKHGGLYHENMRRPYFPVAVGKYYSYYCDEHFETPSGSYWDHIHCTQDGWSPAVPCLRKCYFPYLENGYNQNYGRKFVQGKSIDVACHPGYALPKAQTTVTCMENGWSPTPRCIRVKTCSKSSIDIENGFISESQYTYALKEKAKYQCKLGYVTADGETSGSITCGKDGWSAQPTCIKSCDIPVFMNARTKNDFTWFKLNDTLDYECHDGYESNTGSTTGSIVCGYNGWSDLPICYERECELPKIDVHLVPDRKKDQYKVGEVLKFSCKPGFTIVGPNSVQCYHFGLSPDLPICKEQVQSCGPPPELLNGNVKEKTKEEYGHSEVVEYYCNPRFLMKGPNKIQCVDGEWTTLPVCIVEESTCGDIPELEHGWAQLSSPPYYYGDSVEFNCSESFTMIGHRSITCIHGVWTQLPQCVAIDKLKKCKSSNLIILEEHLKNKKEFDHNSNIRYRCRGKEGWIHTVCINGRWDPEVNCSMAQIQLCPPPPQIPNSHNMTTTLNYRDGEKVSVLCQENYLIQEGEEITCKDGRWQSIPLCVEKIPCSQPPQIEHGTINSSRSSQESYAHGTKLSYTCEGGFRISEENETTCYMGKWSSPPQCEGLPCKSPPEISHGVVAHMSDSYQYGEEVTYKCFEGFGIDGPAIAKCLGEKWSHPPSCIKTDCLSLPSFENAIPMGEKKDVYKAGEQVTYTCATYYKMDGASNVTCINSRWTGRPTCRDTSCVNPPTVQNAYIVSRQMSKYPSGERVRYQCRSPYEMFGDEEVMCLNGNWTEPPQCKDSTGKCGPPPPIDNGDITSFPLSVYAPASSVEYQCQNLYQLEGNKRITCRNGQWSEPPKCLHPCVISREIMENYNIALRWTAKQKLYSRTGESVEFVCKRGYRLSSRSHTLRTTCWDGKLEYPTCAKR

[2] = molecular target: T1, complement factor H, native …; assay: AUC; sedimentation velocity of full-length CFH, 20 °C, 40,000 rpm, Hepes buffer, 0.2 to 1.8 mg/ml, c(s) analysis in SEDFIT, proportions from peak integration; monomer to dimer; details: remark: other sources report otherwise

B1: complement factor H, native glycosylated, full-length, purified from human plasma, P08603 19-1231 (natural protein)
chain: EDCNELPPRRNTEILTGSWSDQTYPEGTQAIYKCRPGYRSLGNVIMVCRKGEWVALNPLRKCQKRPCGHPGDTPFGTFTLTGGNVFEYGVKAVYTCNEGYQLLGEINYRECDTDGWTNDIPICEVVKCLPVTAPENGKIVSSAMEPDREYHFGQAVRFVCNSGYKIEGDEEMHCSDDGFWSKEKPKCVEISCKSPDVINGSPISQKIIYKENERFQYKCNMGYEYSERGDAVCTESGWRPLPSCEEKSCDNPYIPNGDYSPLRIKHRTGDEITYQCRNGFYPATRGNTAKCTSTGWIPAPRCTLKPCDYPDIKHGGLYHENMRRPYFPVAVGKYYSYYCDEHFETPSGSYWDHIHCTQDGWSPAVPCLRKCYFPYLENGYNQNYGRKFVQGKSIDVACHPGYALPKAQTTVTCMENGWSPTPRCIRVKTCSKSSIDIENGFISESQYTYALKEKAKYQCKLGYVTADGETSGSITCGKDGWSAQPTCIKSCDIPVFMNARTKNDFTWFKLNDTLDYECHDGYESNTGSTTGSIVCGYNGWSDLPICYERECELPKIDVHLVPDRKKDQYKVGEVLKFSCKPGFTIVGPNSVQCYHFGLSPDLPICKEQVQSCGPPPELLNGNVKEKTKEEYGHSEVVEYYCNPRFLMKGPNKIQCVDGEWTTLPVCIVEESTCGDIPELEHGWAQLSSPPYYYGDSVEFNCSESFTMIGHRSITCIHGVWTQLPQCVAIDKLKKCKSSNLIILEEHLKNKKEFDHNSNIRYRCRGKEGWIHTVCINGRWDPEVNCSMAQIQLCPPPPQIPNSHNMTTTLNYRDGEKVSVLCQENYLIQEGEEITCKDGRWQSIPLCVEKIPCSQPPQIEHGTINSSRSSQESYAHGTKLSYTCEGGFRISEENETTCYMGKWSSPPQCEGLPCKSPPEISHGVVAHMSDSYQYGEEVTYKCFEGFGIDGPAIAKCLGEKWSHPPSCIKTDCLSLPSFENAIPMGEKKDVYKAGEQVTYTCATYYKMDGASNVTCINSRWTGRPTCRDTSCVNPPTVQNAYIVSRQMSKYPSGERVRYQCRSPYEMFGDEEVMCLNGNWTEPPQCKDSTGKCGPPPPIDNGDITSFPLSVYAPASSVEYQCQNLYQLEGNKRITCRNGQWSEPPKCLHPCVISREIMENYNIALRWTAKQKLYSRTGESVEFVCKRGYRLSSRSHTLRTTCWDGKLEYPTCAKR
modifications: here or on the partner: eight N-linked biantennary complex-type glycans, among them those at Asn1011 (SCR-17) and Asn1077 (SCR-18); eight N-linked biantennary complex-type glycans, among them those at Asn1011 (SCR-17) and Asn1077 (SCR-18)
Kd [1]: 1.6 µM | proportion of dimer [2]: 4% | stoichiometry N [2]: 2

From PMC11417181
